How the values were obtained:
[1] = test system: CN(C)c1ccc(N=Nc2ccc(S(=O)(=O)N[C@@H](CC[S@+](C)[O-])C(=O)O)cc2)cc1; test: DTT-dependent HPLC assay of dabsyl-Met; assay type: biochemical, Helicobacter pylori; details: 20 mM DTT, 50 mM sodium phosphate pH 7.5, 50 mM NaCl, 37 °C, Met-S-O, methods dabsyl-Met-S-O, MsrA site
[2] = test system: CN(C)c1ccc(N=Nc2ccc(S(=O)(=O)N[C@@H](CC[S@@+](C)[O-])C(=O)O)cc2)cc1; test: DTT-dependent HPLC assay of dabsyl-Met; assay type: biochemical, Helicobacter pylori; details: 20 mM DTT, 50 mM sodium phosphate pH 7.5, 50 mM NaCl, 37 °C, Met-R-O, methods dabsyl-Met-R-O, MsrB site

Substance: HpMsrAB (WT) (Helicobacter pylori 26695)
- Km [1]: 170 ± 60 µM
- kcat [1]: 0.17 ± 0.0217 s⁻¹
- kcat/Km [1]: 1000 ± 117 M⁻¹ s⁻¹
- Km [2]: 50 ± 20 µM
- kcat [2]: 0.157 ± 0.00667 s⁻¹
- kcat/Km [2]: 3130 ± 133 M⁻¹ s⁻¹

Reference: publication PMC8000184, “Structural Insights into a Bifunctional Peptide Methionine Sulfoxide Reductase MsrA/B Fusion Protein from Helicobacter pylori” (Antioxidants, 2021)
